This data set is described as follows: protein stability index of a GFP-peptide fusion (GPS, HEK-293T) (PSI 1-6); higher = more stable. The settings on record: c terminus: a fixed tail appended.

This note sets out measurements from the supplement of paper PMC10567573.

± gives the standard deviation.
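Note: 24-mer peptide tiles fused after GFP, lentivirally expressed, FACS-sorted into six equal bins by GFP/DsRed ratio, decoded by Illumina sequencing, PSI is the read-weighted mean bin number.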

In the case of DDRVLSSLVRDTIARVHGTFGAAA [POP5], the protein stability index runs as follows: (treatment: DMSO) 2.89 ± 0.29; (treatment: MLN4924 1 uM, 8 h) 2.96 ± 0.23.
In the same order, the values of SEGSSSSSSSSSSSSSSASSSASS [NFE2L1] are 5.57 ± 0.16 and 5.53 ± 0.2.
Regarding PWVYILLRKAVLKNLYKLASQCCG [PTGFR], the protein stability index runs as follows: (treatment: DMSO) 2.09 ± 0.26; (treatment: MLN4924 1 uM, 8 h) 2.22 ± 0.45.
In the same order, the values of ERHTMDLTVEGFQSWMWRGLTFLL [TMEM120A] are 2.11 ± 0.41 and 2.28 ± 0.092.
For PLDILAQPLEASNPALEGLTQPLQ [DNAAF3] the same measures were 4.9 ± 0.28 and 4.78 ± 0.16.
For DGRQLRKMLRKEAAARCVVLDCRP [DUSP5] the same measures were 2.69 ± 0.24 and 3.07 ± 0.23.
For QQLLHHARNGNAEEVRQLLETMAR [OSBPL1A], the protein stability index reads like this: (treatment: DMSO) 3.15 ± 0.38; (treatment: MLN4924 1 uM, 8 h) 3.78 ± 0.3.
For EEALRKNTEEQLEIALAPYQHLEE [MTUS2] the same measures were 5.27 ± 0.18 and 5.22 ± 0.23.
For SFGVDEEERVRVLQGVRLSENVVN [CHCHD6] the same measures were 4.39 ± 0.2 and 4.59 ± 0.15.
In the same order, the values of EEEGIETQYFAELLMTSGVVLCEG [CNOT7] are 3.27 ± 0.24 and 3.39 ± 0.12.
In the case of RWWEDLERDFPCPVCRKTSRYRSL [TRIM39], the protein stability index runs as follows: (treatment: DMSO) 2.36 ± 0.21; (treatment: MLN4924 1 uM, 8 h) 2.77 ± 0.56.
On to TEYQKQLLAAQVQLQCSPAELQAE [FBF1], for which the protein stability index by setting is: (treatment: DMSO) 4.39 ± 0.31; (treatment: MLN4924 1 uM, 8 h) 4.3 ± 0.2.
For RMIFKLFSQETVMKFVPRYSLVLE [APMAP] the same measures were 2.74 ± 0.55 and 2.51 ± 0.37.
For AYYRGAVGALLVYDIAKHLTYENV [RAB11A] the same measures were 3.11 ± 0.5 and 2.89 ± 0.59.
In the same order, the values of RRKACQACRFTKCLRVGMLKEGVR [ESRRA] are 2.23 ± 0.25 and 2.3 ± 0.51.
In the case of ERCSDSDEEKKARRGRSPKGEFKD [CLINT1], the protein stability index reads like this: (treatment: DMSO) 5.43 ± 0.27; (treatment: MLN4924 1 uM, 8 h) 5.3 ± 0.51.
In the same order, the values of KWDAENAIQQMGGQWLGGRQIRTN [TIA1] are 3.51 ± 0.28 and 3.56 ± 0.3.
Consider EELCAQSARCVVSFNILVEDRVKL [PCDHGA10], for which the protein stability index is, setting by setting: (treatment: DMSO) 2.57 ± 0.19; (treatment: MLN4924 1 uM, 8 h) 2.21 ± 0.4.
For YITKVSEEVTRLGAQVKELEEKCQ [TRIM15] the same measures were 4.07 ± 0.24 and 4.22 ± 0.37.
In the same order, the values of YQETISDVLNDAIFDEDHDEMVIV [GCH1] are 3.98 ± 0.09 and 4.02 ± 0.25.
In the same order, the values of THLILHRDLKTQNILLDKHRMVVK [NEK8] are 2.78 ± 0.11 and 2.83 ± 0.17.
In the case of KARKTYERLVAQFPSSGRFWKLYI [CSTF3], the protein stability index reads like this: (treatment: DMSO) 2.57 ± 0.39; (treatment: MLN4924 1 uM, 8 h) 2.44 ± 0.35.
For NQKSDIWALGCVLYELASLKRAFE [NEK8] the same measures were 2.38 ± 0.72 and 2.41 ± 0.34.
For KKDKCGRTPLHYAAANCHFHCIET [ANKRD44] the same measures were 2.5 ± 0.096 and 2.63 ± 0.29.
For KRPAWGSRRFEAVGWWALLALVTL [POMT2] the same measures were 2.64 ± 0.71 and 2.29 ± 0.24.
In the case of MKDRLAELLDLSKQYDQQFPDGDD [STX11], the protein stability index by setting is: (treatment: DMSO) 4.77 ± 0.33; (treatment: MLN4924 1 uM, 8 h) 4.89 ± 0.15.
For LVEAGAHTDMTNKQNKTPLDKSTT [FEM1B] the same measures were 5.34 ± 0.29 and 5.27 ± 0.21.
For LVARFLEQSSCTMTPDIHELVENI [FAM189A2] the same measures were 2.54 ± 0.55 and 2.37 ± 0.4.
For PPLPPPDDPATLGPHLGLRGVPQS [DYRK1B] the same measures were 4.9 ± 0.23 and 4.91 ± 0.14.
For RSLQRGCRALRDPALDSLAYEYER [TRADD], the protein stability index is 3.13 ± 0.059 (treatment: DMSO) and 3.47 ± 0.32 (treatment: MLN4924 1 uM, 8 h).
In the same order, the values of CFALIPKAPKKDVIKMLVNDNKVL [EFHC1] are 2.28 ± 0.44 and 2.43 ± 0.53.
Turning to QNKAQRQKDLIMKVENLTLKNHFQ [TAF7L], the protein stability index worked out at 3.08 ± 0.28 (treatment: DMSO) and 3.1 ± 0.13 (treatment: MLN4924 1 uM, 8 h).
In the same order, the values of ISIVIFCLETLPEFRDDRDLVMAL [KCNA4] are 3.04 ± 0.81 and 2.84 ± 0.68.
As for KEQEETIQRIDENVLGAQLDVEAA [STX5], the protein stability index is 5.52 ± 0.22 (treatment: DMSO) and 5.4 ± 0.34 (treatment: MLN4924 1 uM, 8 h).
As to AYVSPEILNTTGTYSGKAADVWSL [TRIB1], the protein stability index by setting is: (treatment: DMSO) 2.51 ± 0.3; (treatment: MLN4924 1 uM, 8 h) 2.37 ± 0.52.
In the same order, the values of VLSLACAGGHLAVVELLLAHGADP [ANKRD17] are 2.3 ± 0.66 and 2.44 ± 0.95.
